Results reported in FireProtDB (doi:10.1111/febs.12694).
“And” between values parts separate entries of the source, which are not always exact repeats. Equal entries are not always repeated.

Conditions: Halobacterium salinarum (strain ATCC 700922 / JCM 11081 / NRC-1), Thermal, transition: 2, whole UniProt chain shown

B1: Bacteriorhodopsin wild type, P02945 (protein)
chain: MLELLPTAVEGVSQAQITGRPEWIWLALGTALMGLGTLYFLVKGMGVSDPDAKKFYAITTLVPAIAFTMYLSMLLGYGLTMVPFGGEQNPIYWARYADWLFTTPLLLLDLALLVDADQGTILALVGADGIMIGTGLVGALTKVYSYRFVWWAISTAAMLYILYVLFFGFTSKAESMRPEVASTFKVLRNVTVVLWSAYPVVWLIGSEGAGIVPLNIETLLFMVLDVSAKVGFGLILLRSRAIFGEAEAPEPSAGDGAAATSD
Tm (pH 3.5, DSC): 76.6 °C
Tm (pH 4, UV spectroscopy): 69.2 °C and 67 °C
Tm (pH 7, DSC): 98.2 °C
Tm (pH 7, UV spectroscopy): 90.5 °C
Tm (pH 9, DSC): 94.5 °C
Tm (pH 9.5, UV spectroscopy, glycine buffer): 86 °C
